The target of assay [1] is epOX40.24.2 full-length human IgG1 (human). The assay can be described thus: BLI.
Assay [2] concerns the target epOX40.24.1 full-length human IgG1 (human). The assay is described as follows: BLI. For orientation: In BLI a coated tip is dipped into the sample, and binding shifts an interference pattern.
The target in assay [3] is rOX40.24.2 full-length human IgG1 (human). The assay can be described thus: BLI.
Assay [4] addresses epOX40.24.2 scFv displayed on yeast (human). The assay can be described thus: flow cytometry on cells. In general terms: In flow cytometry, cells or beads pass a laser one at a time.
Assay [5] concerns the target epOX40.24.1 scFv displayed on yeast (human). The assay is described as follows: flow cytometry on cells.
In assay [6] the target is rOX40.24.1 scFv displayed on yeast (human). The assay is described as follows: flow cytometry on cells.
Assay [7] addresses rOX40.24.2 scFv displayed on yeast (human). The assay can be described thus: flow cytometry on cells.

B1: tumor necrosis factor receptor superfamily member 4 (OX40), extracellular, soluble portion (domain or fragment)
chain: LHCVGDTYPSNDRCCHECRPGNGMVSRCSRSQNTVCRPCGPGFYNDVVSSKPCKPCTWCNLRSGSERKQLCTATQDTVCRCRAGTQPLDSYKPGVDCAPCPPGHFSPGDNQACKPWTNCTLAGKHTLQPASNSSDAICEDRDPPATQPQETQGPPARPITVQPTEAWPRTSQGPSTRPVEVPGGRA
modifications: biotin (Sulfo-NHS-LC-biotin) for staining of yeast; not stated for BLI and SPR
For orientation: Kd means the concentration at which binding is half-saturated. Turning to B1, the dissociation constant (Kd) in assay [1] worked out at 3.8 nM; in assay [2], 14.4 nM; in assay [3], 6.9 nM; in assay [4], 7.9 nM; in assay [5], 3.8 nM; in assay [6] it was 2.2 nM. Moreover, the dissociation constant (Kd) in assay [7] was found to be 2 nM.

Source of the values: PMC7531523.
